Data on eleven molecules can be found in paper PMC2665027 (Biochemistry, 2009).

Read-outs that look alike come from different tables or passages of the source.

Series [1] has as its system rat arginase I. The conditions noted are these: ref [26], cited from earlier work; for diminished catalytic activity based on kcat/KM relative to L-arginine / increased KM value relative to L-arginine: alternative substrate.
The next series addresses T1, T135S rat arginase I (Rattus norvegicus, UniProt P07824, T135S).
T1 sequence (P07824 1-323 T135S): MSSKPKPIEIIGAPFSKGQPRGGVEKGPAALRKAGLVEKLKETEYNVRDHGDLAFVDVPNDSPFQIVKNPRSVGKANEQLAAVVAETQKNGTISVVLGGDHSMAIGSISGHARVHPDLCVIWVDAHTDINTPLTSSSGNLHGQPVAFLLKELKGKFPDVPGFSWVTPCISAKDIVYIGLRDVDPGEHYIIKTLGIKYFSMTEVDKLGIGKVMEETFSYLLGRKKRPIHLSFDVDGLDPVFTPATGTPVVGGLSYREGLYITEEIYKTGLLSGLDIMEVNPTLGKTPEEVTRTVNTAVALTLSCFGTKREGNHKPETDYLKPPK
Type of series: biochemical.

Another series deals with T2, wild-type rat arginase I (Rattus norvegicus, UniProt P07824).
T2 sequence (P07824 1-323): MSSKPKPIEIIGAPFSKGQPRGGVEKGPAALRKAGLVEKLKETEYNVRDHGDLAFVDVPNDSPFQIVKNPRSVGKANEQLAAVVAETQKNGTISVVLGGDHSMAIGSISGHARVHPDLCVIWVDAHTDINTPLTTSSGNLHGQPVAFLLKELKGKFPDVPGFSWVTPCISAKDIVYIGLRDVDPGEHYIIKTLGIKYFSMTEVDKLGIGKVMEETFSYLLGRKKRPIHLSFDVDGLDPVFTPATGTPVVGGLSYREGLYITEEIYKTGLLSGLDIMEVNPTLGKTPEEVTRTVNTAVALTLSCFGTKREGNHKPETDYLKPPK
The conditions noted are these: ref [14], cited from earlier work.

The next series addresses T3, T135A rat arginase I (Rattus norvegicus, UniProt P07824, T135A).
T3 sequence (P07824 1-323 T135A): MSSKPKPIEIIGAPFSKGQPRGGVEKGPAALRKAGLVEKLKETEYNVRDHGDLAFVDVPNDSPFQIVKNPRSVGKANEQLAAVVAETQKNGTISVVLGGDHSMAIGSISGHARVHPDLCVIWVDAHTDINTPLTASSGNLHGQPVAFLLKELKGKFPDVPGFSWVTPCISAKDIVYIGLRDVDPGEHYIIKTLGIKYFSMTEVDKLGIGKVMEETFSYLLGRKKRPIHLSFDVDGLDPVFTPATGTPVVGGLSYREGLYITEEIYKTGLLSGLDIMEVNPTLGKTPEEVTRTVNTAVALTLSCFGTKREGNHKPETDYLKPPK
In words: 14C-urea radioactive arginase assay, T135A rat arginase I. It is filed as biochemical.

The target in a further series is T4, N130A rat arginase I (Rattus norvegicus, UniProt P07824, N130A).
T4 sequence (P07824 1-323 N130A): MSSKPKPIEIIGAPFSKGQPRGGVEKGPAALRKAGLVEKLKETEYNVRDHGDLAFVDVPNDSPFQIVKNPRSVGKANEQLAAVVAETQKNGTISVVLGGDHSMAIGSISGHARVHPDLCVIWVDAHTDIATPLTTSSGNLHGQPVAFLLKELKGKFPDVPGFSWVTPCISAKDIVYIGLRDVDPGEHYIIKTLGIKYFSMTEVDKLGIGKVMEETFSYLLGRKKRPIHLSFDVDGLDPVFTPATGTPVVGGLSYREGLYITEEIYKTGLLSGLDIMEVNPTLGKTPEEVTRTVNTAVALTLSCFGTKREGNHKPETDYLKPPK
As to the kind of experiment: 14C-urea radioactive arginase assay, N130A rat arginase I. Type of series: biochemical.

For series [2], the system named is rat arginase I. The conditions noted are these: deletion of the carboxylate group of ABH; ref [28]; cited from earlier work.
Substrate in series [3]: N=C(N)NCCC[C@H](N)C(=O)O
In words: 14C-urea radioactive arginase assay, D183A rat arginase I. The conditions noted are these: other: substrate L-arginine, pH 9.0, room temperature. Type of series: biochemical.

Substrate in series [4]: N=C(N)NCCC[C@H](N)C(=O)O
In words: 14C-urea radioactive arginase assay, N130A rat arginase I. Type of series: biochemical. Conditions: other: substrate L-arginine, pH 9.0, room temperature.

Substrate in series [5]: N=C(N)NCCC[C@H](N)C(=O)O
In words: 14C-urea radioactive arginase assay, N130F rat arginase I. The conditions noted are these: other: substrate L-arginine, pH 9.0, room temperature. It is filed as biochemical.

Substrate in series [6]: N=C(N)NCCC[C@H](N)C(=O)O
As to the kind of experiment: 14C-urea radioactive arginase assay, T135A rat arginase I. The conditions noted are these: other: substrate L-arginine, pH 9.0, room temperature. It is filed as biochemical.

Substrate in series [7]: N=C(N)NCCC[C@H](N)C(=O)O
It is filed as biochemical, rat. The conditions noted are these: other: substrate L-arginine, pH 9.0, room temperature.

Substrate in series [8]: N=C(N)NCCC[C@H](N)C(=O)O
As to the kind of experiment: 14C-urea radioactive arginase assay, N130Y rat arginase I. It is filed as biochemical. The conditions noted are these: other: substrate L-arginine, pH 9.0, room temperature.

Where [9] appears, read: progress curves in the presence of 30 µM BEC linear with time.

As for `NC(N)=NCCC[C@@H](N)C(=O)O` [D-arginine], the substrate activity entry in the series on rat arginase I [1] is given as “not a substrate”.
Consider `N[C@@H](CSCCB(O)O)C(=O)O` [BEC, S-(2-boronoethyl)-L-cysteine], for which the Ki is 125 nM at T135S rat arginase I; 400 nM at wild-type rat arginase I (slow-binding kinetics observed, Ki = koff/kon); 4500 nM on T135A rat arginase I; 13000 nM on N130A rat arginase I. For the same molecule, the off-rate (koff) on T135S rat arginase I is 0.00155 s⁻¹. On T135S rat arginase I, the on-rate (kon) was found to be 12400 M⁻¹ s⁻¹. For the same molecule, the inhibitor binding behaviour result on T135S rat arginase I (non-linear progress curves in the presence of BEC) was “slow-binding behavior”; at wild-type rat arginase I, “slow-binding inhibitor”; on T135A rat arginase I (setting [9]), “does not exhibit slow-binding behavior”; at N130A rat arginase I (setting [9]), “no longer a slow-binding inhibitor”. Also, the “diminished enzyme-inhibitor affinity relative to wild-type” value at N130A rat arginase I (N130A vs wild-type rat arginase I) is ~ 30 fold.
Turning to `NCCCCN=C(N)N` [agmatine], in the series with rat arginase I [1], the “diminished catalytic activity based on kcat/KM relative to L-arginine” value is on record as 54,000 fold and the “increased KM value relative to L-arginine” value is listed as 11 fold.
Take `NC(N)=NCCC[C@H](O)C(=O)O` [L-argininic acid]: in the series with rat arginase I [1], the “diminished catalytic activity based on kcat/KM relative to L-arginine” value is 3,200 fold and the “increased KM value relative to L-arginine” value is on record as 9 fold.
As to `NCCCCCB(O)O` [descarboxy-ABH], in the series with rat arginase I [2], the “loss of inhibitory activity relative to ABH” value is given as 1800 fold.

B1: D183A rat arginase I (Rattus norvegicus; D183A) (protein)
chain: MSSKPKPIEIIGAPFSKGQPRGGVEKGPAALRKAGLVEKLKETEYNVRDHGDLAFVDVPNDSPFQIVKNPRSVGKANEQLAAVVAETQKNGTISVVLGGDHSMAIGSISGHARVHPDLCVIWVDAHTDINTPLTTSSGNLHGQPVAFLLKELKGKFPDVPGFSWVTPCISAKDIVYIGLRDVAPGEHYIIKTLGIKYFSMTEVDKLGIGKVMEETFSYLLGRKKRPIHLSFDVDGLDPVFTPATGTPVVGGLSYREGLYITEEIYKTGLLSGLDIMEVNPTLGKTPEEVTRTVNTAVALTLSCFGTKREGNHKPETDYLKPPK
For B1, in series [3], the Km was 13.9 mM, the kcat is 14.7 s⁻¹ and the kcat/Km was 1100 M⁻¹ s⁻¹.

B2: N130A rat arginase I (Rattus norvegicus; N130A) (protein)
chain: MSSKPKPIEIIGAPFSKGQPRGGVEKGPAALRKAGLVEKLKETEYNVRDHGDLAFVDVPNDSPFQIVKNPRSVGKANEQLAAVVAETQKNGTISVVLGGDHSMAIGSISGHARVHPDLCVIWVDAHTDIATPLTTSSGNLHGQPVAFLLKELKGKFPDVPGFSWVTPCISAKDIVYIGLRDVDPGEHYIIKTLGIKYFSMTEVDKLGIGKVMEETFSYLLGRKKRPIHLSFDVDGLDPVFTPATGTPVVGGLSYREGLYITEEIYKTGLLSGLDIMEVNPTLGKTPEEVTRTVNTAVALTLSCFGTKREGNHKPETDYLKPPK
In the case of B2, in [4], the Km amounted to 50 mM, the kcat came to 220 s⁻¹ and the kcat/Km was 4400 M⁻¹ s⁻¹.

B3: N130F rat arginase I (Rattus norvegicus; N130F) (protein)
chain: MSSKPKPIEIIGAPFSKGQPRGGVEKGPAALRKAGLVEKLKETEYNVRDHGDLAFVDVPNDSPFQIVKNPRSVGKANEQLAAVVAETQKNGTISVVLGGDHSMAIGSISGHARVHPDLCVIWVDAHTDIFTPLTTSSGNLHGQPVAFLLKELKGKFPDVPGFSWVTPCISAKDIVYIGLRDVDPGEHYIIKTLGIKYFSMTEVDKLGIGKVMEETFSYLLGRKKRPIHLSFDVDGLDPVFTPATGTPVVGGLSYREGLYITEEIYKTGLLSGLDIMEVNPTLGKTPEEVTRTVNTAVALTLSCFGTKREGNHKPETDYLKPPK
Take B3: in series [5], the Km was 19.3 mM, the kcat was found to be 4.8 s⁻¹ and the kcat/Km is 250 M⁻¹ s⁻¹.

B4: T135A rat arginase I (Rattus norvegicus; T135A) (protein)
chain: MSSKPKPIEIIGAPFSKGQPRGGVEKGPAALRKAGLVEKLKETEYNVRDHGDLAFVDVPNDSPFQIVKNPRSVGKANEQLAAVVAETQKNGTISVVLGGDHSMAIGSISGHARVHPDLCVIWVDAHTDINTPLTASSGNLHGQPVAFLLKELKGKFPDVPGFSWVTPCISAKDIVYIGLRDVDPGEHYIIKTLGIKYFSMTEVDKLGIGKVMEETFSYLLGRKKRPIHLSFDVDGLDPVFTPATGTPVVGGLSYREGLYITEEIYKTGLLSGLDIMEVNPTLGKTPEEVTRTVNTAVALTLSCFGTKREGNHKPETDYLKPPK
On to B4, for which, in [6], the Km came to 13 mM, the turnover number (kcat) is 260 s⁻¹ and the kcat/Km came out at 20000 M⁻¹ s⁻¹.

B5: T135S rat arginase I (Rattus norvegicus; T135S) (protein)
chain: MSSKPKPIEIIGAPFSKGQPRGGVEKGPAALRKAGLVEKLKETEYNVRDHGDLAFVDVPNDSPFQIVKNPRSVGKANEQLAAVVAETQKNGTISVVLGGDHSMAIGSISGHARVHPDLCVIWVDAHTDINTPLTSSSGNLHGQPVAFLLKELKGKFPDVPGFSWVTPCISAKDIVYIGLRDVDPGEHYIIKTLGIKYFSMTEVDKLGIGKVMEETFSYLLGRKKRPIHLSFDVDGLDPVFTPATGTPVVGGLSYREGLYITEEIYKTGLLSGLDIMEVNPTLGKTPEEVTRTVNTAVALTLSCFGTKREGNHKPETDYLKPPK
In the case of B5, in [7], the Michaelis constant (Km) is 2.5 mM, the kcat was 350 s⁻¹ and the kcat/Km came out at 140000 M⁻¹ s⁻¹.

B6: N130Y rat arginase I (Rattus norvegicus; N130Y) (protein)
chain: MSSKPKPIEIIGAPFSKGQPRGGVEKGPAALRKAGLVEKLKETEYNVRDHGDLAFVDVPNDSPFQIVKNPRSVGKANEQLAAVVAETQKNGTISVVLGGDHSMAIGSISGHARVHPDLCVIWVDAHTDIYTPLTTSSGNLHGQPVAFLLKELKGKFPDVPGFSWVTPCISAKDIVYIGLRDVDPGEHYIIKTLGIKYFSMTEVDKLGIGKVMEETFSYLLGRKKRPIHLSFDVDGLDPVFTPATGTPVVGGLSYREGLYITEEIYKTGLLSGLDIMEVNPTLGKTPEEVTRTVNTAVALTLSCFGTKREGNHKPETDYLKPPK
With B6, in [8], the Km worked out at 21.4 mM, the kcat amounted to 17 s⁻¹ and the specificity constant (kcat/Km) was found to be 790 M⁻¹ s⁻¹.
